Laboratory results taken from article PMC6954424.

Target: mouse IgG (on magnet beads) (mouse)
Assay: pull-down; DNA-barcoded HaloTag protein G (93 nM by qPCR) mixed with mouse IgG magnet beads in PBS-NP40, 4°C, 2 h; three washes; bound barcode quantified by qPCR

- fold signal (qPCR of the barcode) over the negative control barcoded GST with IgG: 1000 fold
Substance: DNA-barcoded HaloTag protein G (from UniProt P06654 34-417) (natural protein)
